For assay [1], the target named is Pythium ultimum Gat1 (Pythium ultimum). Description: AUC.
For assay [2] the target is unchanged. Description: AUC. This is another data set of the same source.
For assay [3], the target named is Toxoplasma gondii Gat1 (Toxoplasma gondii). Description: SEC + AUC.

Like-named read-outs stand apart in the source and are kept apart here. Bounds are passed on as bounds.

A word on the stoichiometry N: it is a count of units in the complex or per binding partner. As to Pythium ultimum Gat1 (enzyme), the stoichiometry N in assay [1] came out at 2. In assay [2], this substance came in with a fold higher dimer affinity than Oc-glycogenin-1 (reported Kd 0.85 µM) above 2 fold and a stoichiometry N of 2.

For Toxoplasma gondii Gat1 (enzyme), the stoichiometry N in assay [3] was 2.

Values taken from doi:10.1101/764241.
